In the RNAGym collection of RNA variant scans (doi:10.1093/molbev/msab373):

B1: Azoarcus group I ribozyme (parent)
chain: GUGCCUUGCGCCGGGAAACCACGCAAGGGAUGGUGUCAAAUUCGGCGAAACCUAAGCGCCCGCCCGGGCGUAUGGCAACGCCGAGCCAAGCUUCGGCGCCUGCGCCGAUGAAGGUGUAGAGACUAGACGGCACCCACCUAAGGCAAACGCUAUGGUGAAGGCAUAGUCCAGGGAGUGGCGAAAGUCACACAAACCGG

Variants of: B1
Assay: reverse-splicing fitness (ratio to wild type); higher = more active; in vitro selection; Mg2+ level not given
In short: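 An in vitro group I ribozyme library with randomized positions was T7-transcribed and gel-purified. In triplicate, 10 pmol RNA in EPPS pH 7.5 was reacted with 50 pmoles of a 30-nt RNA substrate for 1 h at 37 °C across several added MgCl2 levels (1–48 mM), then stopped with EDTA. Products were reverse transcribed from a substrate-complementary primer, PCR-amplified and sequenced (HiSeq 4000). Fitness is a variant's read proportion after selection over that before, normalised to wild type.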

Row | Variant | reverse-splicing fitness
1 | GUGCCUUGCGCCGGGAAACCACGCAAGGGAUGGUGUCAAAUUCGGCGAAACCUAAGCGCCCGCCCGGGCGUAUGGCAACGCGGAGCCAAGCUUCGGCGCCUGCGCCGAUGUAGGUGUAGGGACUAGACGGCACCCACCUAAGGCGAACGAUAUGGUGAAGGCAUAGUCUAGGGAGCGGCGAAAGUCACACAAACCGG [C82G A111U A120G A145G C150A C169U U176C] | 0.0177
2 | GUGCCUUGCGCCGGGAAACCACGCAAGGGAUGGUGUCAAAUUCGGCGAAACCUAAGCGCCCGCCCGGGCGUAUGGCAACGCGGAGCCAAGCUUCGGCGCCUGCGCCGAUGUAGGUGUAGGGACUAGACGGCACCCACCUAAGGCGAACGAUAUGGUGAAGGCAUAGUCUAGGGAGGGGCGAAAGUCACACAAACCGG [C82G A111U A120G A145G C150A C169U U176G] | 0.00642
3 | GUGCCUUGCGCCGGGAAACCACGCAAGGGAUGGUGUCAAAUUCGGCGAAACCUAAGCGCCCGCCCGGGCGUAUGGCAACGCGGAGCCAAGCUUCGGCGCCUGCGCCGAUGUAGGUGUAGGGACUAGACGGCACCCACCUAAGGCGAACGAUAUGGUGAAGGCAUAGUCCAGGGAGAGGCGAAAGUCACACAAACCGG [C82G A111U A120G A145G C150A U176A] | 0.011
4 | GUGCCUUGCGCCGGGAAACCACGCAAGGGAUGGUGUCAAAUUCGGCGAAACCUAAGCGCCCGCCCGGGCGUAUGGCAACGCGGAGCCAAGCUUCGGCGCCUGCGCCGAUGUAGGUGUAGGGACUAGACGGCACCCACCUAAGGCGAACGAUAUGGUGAAGGCAUAGUCCAGGGAGCGGCGAAAGUCACACAAACCGG [C82G A111U A120G A145G C150A U176C] | 0.0219
5 | GUGCCUUGCGCCGGGAAACCACGCAAGGGAUGGUGUCAAAUUCGGCGAAACCUAAGCGCCCGCCCGGGCGUAUGGCAACGCGGAGCCAAGCUUCGGCGCCUGCGCCGAUGUAGGUGUAGGGACUAGACGGCACCCACCUAAGGCGAACGAUAUGGUGAAGGCAUAGUCCAGGGAGGGGCGAAAGUCACACAAACCGG [C82G A111U A120G A145G C150A U176G] | 0.00873
6 | GUGCCUUGCGCCGGGAAACCACGCAAGGGAUGGUGUCAAAUUCGGCGAAACCUAAGCGCCCGCCCGGGCGUAUGGCAACGCGGAGCCAAGCUUCGGCGCCUGCGCCGAUGUAGGUGUAGGGACUAGACGGCACCCACCUAAGGCGAACGGUAUGGUGAAGGCAUAGUCCAGGGAGUGGCGAAAGUCACACAAACCGG [C82G A111U A120G A145G C150G] | 0.00786
7 | GUGCCUUGCGCCGGGAAACCACGCAAGGGAUGGUGUCAAAUUCGGCGAAACCUAAGCGCCCGCCCGGGCGUAUGGCAACGCGGAGCCAAGCUUCGGCGCCUGCGCCGAUGUAGGUGUAGGGACUAGACGGCACCCACCUAAGGCGAACGGUAUGGUGAAGGCAUAGUCAAGGGAGUGGCGAAAGUCACACAAACCGG [C82G A111U A120G A145G C150G C169A] | 0.00911
8 | GUGCCUUGCGCCGGGAAACCACGCAAGGGAUGGUGUCAAAUUCGGCGAAACCUAAGCGCCCGCCCGGGCGUAUGGCAACGCGGAGCCAAGCUUCGGCGCCUGCGCCGAUGUAGGUGUAGGGACUAGACGGCACCCACCUAAGGCGAACGGUAUGGUGAAGGCAUAGUCAAGGGAGAGGCGAAAGUCACACAAACCGG [C82G A111U A120G A145G C150G C169A U176A] | 0.0133
9 | GUGCCUUGCGCCGGGAAACCACGCAAGGGAUGGUGUCAAAUUCGGCGAAACCUAAGCGCCCGCCCGGGCGUAUGGCAACGCGGAGCCAAGCUUCGGCGCCUGCGCCGAUGUAGGUGUAGGGACUAGACGGCACCCACCUAAGGCGAACGGUAUGGUGAAGGCAUAGUCAAGGGAGCGGCGAAAGUCACACAAACCGG [C82G A111U A120G A145G C150G C169A U176C] | 0.0126
10 | GUGCCUUGCGCCGGGAAACCACGCAAGGGAUGGUGUCAAAUUCGGCGAAACCUAAGCGCCCGCCCGGGCGUAUGGCAACGCGGAGCCAAGCUUCGGCGCCUGCGCCGAUGUAGGUGUAGGGACUAGACGGCACCCACCUAAGGCGAACGGUAUGGUGAAGGCAUAGUCAAGGGAGGGGCGAAAGUCACACAAACCGG [C82G A111U A120G A145G C150G C169A U176G] | 0.00831
11 | GUGCCUUGCGCCGGGAAACCACGCAAGGGAUGGUGUCAAAUUCGGCGAAACCUAAGCGCCCGCCCGGGCGUAUGGCAACGCGGAGCCAAGCUUCGGCGCCUGCGCCGAUGUAGGUGUAGGGACUAGACGGCACCCACCUAAGGCGAACGGUAUGGUGAAGGCAUAGUCGAGGGAGUGGCGAAAGUCACACAAACCGG [C82G A111U A120G A145G C150G C169G] | 0.00782
12 | GUGCCUUGCGCCGGGAAACCACGCAAGGGAUGGUGUCAAAUUCGGCGAAACCUAAGCGCCCGCCCGGGCGUAUGGCAACGCGGAGCCAAGCUUCGGCGCCUGCGCCGAUGUAGGUGUAGGGACUAGACGGCACCCACCUAAGGCGAACGGUAUGGUGAAGGCAUAGUCGAGGGAGAGGCGAAAGUCACACAAACCGG [C82G A111U A120G A145G C150G C169G U176A] | 0.0104
13 | GUGCCUUGCGCCGGGAAACCACGCAAGGGAUGGUGUCAAAUUCGGCGAAACCUAAGCGCCCGCCCGGGCGUAUGGCAACGCGGAGCCAAGCUUCGGCGCCUGCGCCGAUGUAGGUGUAGGGACUAGACGGCACCCACCUAAGGCGAACGGUAUGGUGAAGGCAUAGUCGAGGGAGCGGCGAAAGUCACACAAACCGG [C82G A111U A120G A145G C150G C169G U176C] | 0.0116
14 | GUGCCUUGCGCCGGGAAACCACGCAAGGGAUGGUGUCAAAUUCGGCGAAACCUAAGCGCCCGCCCGGGCGUAUGGCAACGCGGAGCCAAGCUUCGGCGCCUGCGCCGAUGUAGGUGUAGGGACUAGACGGCACCCACCUAAGGCGAACGGUAUGGUGAAGGCAUAGUCGAGGGAGGGGCGAAAGUCACACAAACCGG [C82G A111U A120G A145G C150G C169G U176G] | 0.00621
15 | GUGCCUUGCGCCGGGAAACCACGCAAGGGAUGGUGUCAAAUUCGGCGAAACCUAAGCGCCCGCCCGGGCGUAUGGCAACGCGGAGCCAAGCUUCGGCGCCUGCGCCGAUGUAGGUGUAGGGACUAGACGGCACCCACCUAAGGCGAACGGUAUGGUGAAGGCAUAGUCUAGGGAGUGGCGAAAGUCACACAAACCGG [C82G A111U A120G A145G C150G C169U] | 0.00909
